Measured values from US20130164214A1.

Experiments:
CD20 = CD20 (UniProt P11836); test: cell-based or functional assay
[1] = target: CD74 (invariant chain, Ii) (human) (UniProt P04233); test: cell-based or functional assay
Sequence of CD74 (invariant chain, Ii) (human) (P04233 whole entry, change not shown): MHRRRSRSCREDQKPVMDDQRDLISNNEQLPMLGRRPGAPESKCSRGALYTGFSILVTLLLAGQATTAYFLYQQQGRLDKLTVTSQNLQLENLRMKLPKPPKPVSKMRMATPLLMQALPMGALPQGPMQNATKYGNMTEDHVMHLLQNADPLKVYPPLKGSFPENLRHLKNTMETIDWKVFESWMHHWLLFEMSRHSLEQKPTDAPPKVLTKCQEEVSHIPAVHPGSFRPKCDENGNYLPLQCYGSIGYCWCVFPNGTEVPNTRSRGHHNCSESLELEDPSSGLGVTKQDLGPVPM

Sequence of CD20 (P11836 whole entry): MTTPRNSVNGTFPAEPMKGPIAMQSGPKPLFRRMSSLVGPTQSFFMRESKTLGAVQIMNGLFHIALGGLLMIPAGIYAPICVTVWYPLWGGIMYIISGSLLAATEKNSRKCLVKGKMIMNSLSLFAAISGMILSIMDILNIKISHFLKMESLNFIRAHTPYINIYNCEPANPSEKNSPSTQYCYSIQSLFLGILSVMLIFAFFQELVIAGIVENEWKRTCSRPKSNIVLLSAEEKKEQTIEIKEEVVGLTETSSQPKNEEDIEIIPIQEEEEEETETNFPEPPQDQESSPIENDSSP

reduction of live B cells in human PBMCs after 3 days with antibody, flow cytometry [1] | reduction of live mDC2 in human PBMCs after 3 days with antibody, flow cytometry [1] | Substance | in vitro cytotoxicity EC50, Daudi and Ramos NHL cell lines (CD20) | in vitro cytotoxicity EC50, Jeko-1 mantle cell lymphoma line (CD20)
– | – | 20-Rap (hA20 IgG-AD2 with four copies of Rap-DDD2) | 100 pM | 20 pM
22% | 53.8% | milatuzumab (humanized anti-CD74 LL1 antibody) | – | –
